Here are results for one protein from ChEMBL document CHEMBL1126004, “Synthesis and resolution of 7-fluorotryptophans” (Bioorg Med Chem Lett, 1991).

Substrate in series [1]: N[C@@H](Cc1c[nH]c2c(F)cc(F)cc12)C(=O)O
As to the kind of experiment: (§1) Compound was evaluated for Michaelis-Menten constant (Km) in a reaction with tryptophan indole-lyase (tryptophanase) from Escherichia coli.

Substrate in series [2]: N[C@@H](Cc1c[nH]c2c(F)ccc(F)c12)C(=O)O
The series is described as §1.

Substrate in series [3]: N[C@@H](Cc1c[nH]c2c(F)cccc12)C(=O)O
The series is described as §1.

Substrate in series [4]: N[C@@H](Cc1c[nH]c2ccccc12)C(=O)O
The description is as §1.

Substrate in series [5]: N[C@@H](Cc1c[nH]c2c(F)cc(F)cc12)C(=O)O
As to the kind of experiment: (§2) Compound was evaluated for relative maximum velocity (Vmax) in a reaction with tryptophan indole-lyase (tryptophanase) from Escherichia coli.

Substrate in series [6]: N[C@@H](Cc1c[nH]c2c(F)ccc(F)c12)C(=O)O
The series is described as §2.

Substrate in series [7]: N[C@@H](Cc1c[nH]c2c(F)cccc12)C(=O)O
The description is as §2.

Substrate in series [8]: N[C@@H](Cc1c[nH]c2ccccc12)C(=O)O
The series is described as §2.

B1: Tryptophan 2,3-dioxygenase (Homo sapiens), P48775 (protein)
chain: MSGCPFLGNNFGYTFKKLPVEGSEEDKSQTGVNRASKGGLIYGNYLHLEKVLNAQELQSETKGNKIHDEHLFIITHQAYELWFKQILWELDSVREIFQNGHVRDERNMLKVVSRMHRVSVILKLLVQQFSILETMTALDFNDFREYLSPASGFQSLQFRLLENKIGVLQNMRVPYNRRHYRDNFKGEENELLLKSEQEKTLLELVEAWLERTPGLEPHGFNFWGKLEKNITRGLEEEFIRIQAKEESEEKEEQVAEFQKQKEVLLSLFDEKRHEHLLSKGERRLSYRALQGALMIYFYREEPRFQVPFQLLTSLMDIDSLMTKWRYNHVCMVHRMLGSKAGTGGSSGYHYLRSTVSDRYKVFVDLFNLSTYLIPRHWIPKMNPTIHKFLYTAEYCDSSYFSSDESD
By Km is commonly meant the concentration of substrate that gives half-maximal velocity. Take B1: the Km was 490 µM in series [1], 1700 µM in series [2], 640 µM in series [3] and 260 µM in series [4]. The Vmax in series [5] amounted to 58%; in series [6] it was 42%; in series [7], 29%; in series [8], 100%.
